Tests used:
DR4-Fc = DR4-Fc (UniProt O00220); assay: BLI; Octet; DR4-Fc or DR5-Fc immobilised on protein A-coated biosensors, inserted into solutions of TRAIL proteins at different concentrations (2.5-50 nM)
DR5-Fc = DR5-Fc (UniProt O14763); assay: as above
Chain of UniProt O14763 (O14763 56-210): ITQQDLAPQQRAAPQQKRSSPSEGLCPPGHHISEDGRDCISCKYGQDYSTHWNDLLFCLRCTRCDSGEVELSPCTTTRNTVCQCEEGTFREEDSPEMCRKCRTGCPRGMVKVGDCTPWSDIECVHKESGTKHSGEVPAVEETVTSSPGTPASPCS

Chain of UniProt O00220 (O00220 24-239): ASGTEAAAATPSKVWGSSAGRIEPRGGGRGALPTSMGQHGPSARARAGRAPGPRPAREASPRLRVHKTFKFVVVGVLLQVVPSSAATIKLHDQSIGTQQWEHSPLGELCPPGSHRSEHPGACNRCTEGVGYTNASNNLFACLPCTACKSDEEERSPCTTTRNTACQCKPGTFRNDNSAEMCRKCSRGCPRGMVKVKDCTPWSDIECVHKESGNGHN

RGR-TRAIL (tumor-homing RGR peptide fused to the N-terminus of TRAIL) (ligand)
Kd (DR4-Fc): 1.1 nM
Kd (DR5-Fc): 0.46 nM
